# Measurements from the Human Domainome abundance scans (Beltran et al. 2025).
# ± gives the uncertainty stated by the source.
# B1: Ankyrin-1, residues 1405 to 1484; numbered along this chain, P16157 (parent)
# chain: MKMAVISEHLGLSWAELARELQFSVEDINRIRVENPNSLLEQSVALLNLWVIREGQNANMENLYTALQSIDRGEIVNMLE
# Variants of: B1
# Assay: abundance fitness (aPCA) (normalised: wild type 0, dead -1); higher = more abundant; growth selection in yeast, the domain comes from the species named
# Details: Homo sapiens
row,Variant,abundance fitness
1,MKMAVISEHLGLSWAELARELQFSVEDINRIRVENPNSLLEQSVALLNLWVIREGQNANMENLETALQSIDRGEIVNMLE [Y64E],-0.353 ± 0.096
2,MKMAVISEHLGLSWAELARELQFSVEDINRIRVENPNSLLEQSVALLNLWVIREGQNANMENLGTALQSIDRGEIVNMLE [Y64G],-0.274 ± 0.056
3,MKMAVISEHLGLSWAELERELQFSVEDINRIRVENPNSLLEQSVALLNLWVIREGQNANMENLYTALQSIDRGEIVNMLE [A18E],-0.39 ± 0.14
4,MKMAVISEHLGLSWAELARELQFSVEDINRIRVENPNSLLEQSVALLNLWVIREWQNANMENLYTALQSIDRGEIVNMLE [G55W],-1.01 ± 0.42
5,MKMQVISEHLGLSWAELARELQFSVEDINRIRVENPNSLLEQSVALLNLWVIREGQNANMENLYTALQSIDRGEIVNMLE [A4Q],-0.041 ± 0.11
6,MKMAVISEHLGLSWAELARELQFSVEDINRIRVENPNSLLEQSVALLNLWVIREGQNANMENLYTALQSIDRGEIMNMLE [V76M],-0.307 ± 0.097
7,MKMAVISEHLGLSWAELARELQFSVEDINRIRVENPNSLLEQSVALLNLWVIREGQNANMENLYTALQSIDRGEIVNMIE [L79I],-0.019 ± 0.11
8,MKMAVISEHLGLSWAELARELQFSVEDINRIRVENPNSLLEQSVSLLNLWVIREGQNANMENLYTALQSIDRGEIVNMLE [A45S],-0.03 ± 0.057
9,MKMAVISEHLGLSWAELARELQFSVEDINRIRVENPNSLLEQSVCLLNLWVIREGQNANMENLYTALQSIDRGEIVNMLE [A45C],-0.259 ± 0.034
10,MKMAVISEHLGLSWAILARELQFSVEDINRIRVENPNSLLEQSVALLNLWVIREGQNANMENLYTALQSIDRGEIVNMLE [E16I],-0.384 ± 0.13
11,MKMAVISEHLGLYWAELARELQFSVEDINRIRVENPNSLLEQSVALLNLWVIREGQNANMENLYTALQSIDRGEIVNMLE [S13Y],-0.504 ± 0.15
12,MKMAVISEHLGLSWAELARELQFSVEDINRIRVENPNSLLEFSVALLNLWVIREGQNANMENLYTALQSIDRGEIVNMLE [Q42F],-0.899 ± 0.25
13,MKMAVISEHLGLSWAELARELQFSVEDINRIRVENPNSLLENSVALLNLWVIREGQNANMENLYTALQSIDRGEIVNMLE [Q42N],-0.882 ± 0.33
14,MKMAVISEHLGLSWAELARELQFSVEDINRIRVENPNSLLEQSVALLNLWVIGEGQNANMENLYTALQSIDRGEIVNMLE [R53G],-0.507 ± 0.058
15,MKMAVISEHLGLSWAELARELQFSVEDIRRIRVENPNSLLEQSVALLNLWVIREGQNANMENLYTALQSIDRGEIVNMLE [N29R],-0.007 ± 0.048
16,MKMAVISEHLGLSWAELARELQFSVEDINRIRVENPNSLLEQSVALLNLWVIREGQNANMENLYTALQSIDRGEIVQMLE [N77Q],0.148 ± 0.11
17,MKMAVISEHLGLSWAELARELQFSVEDINRIRVENPNSLLEQSVALLNLWVIREGQNANMENLYTALQSIDRGEIVRMLE [N77R],0.08 ± 0.065
18,MKMAVISEHLGLSWAELARELQFSVEDINRIRVENPNSLLEQSVALLNLWVIREGQNANMDNLYTALQSIDRGEIVNMLE [E61D],-0.1 ± 0.28
19,MKMAVISEHLGLSWAELARELQFSVEDINRIRVENPNSLLEQSVALLNLWVIREGQNANMENWYTALQSIDRGEIVNMLE [L63W],-0.693 ± 0.22
20,MKMAVISEHLGLSWAELARELQFSVEDINRIRVENPNSLLEQSVALLNLWVIREGQNANMENAYTALQSIDRGEIVNMLE [L63A],-0.79 ± 0.2
21,MKMAVISEHLGLSWAELARELQFSVEDINRIRVLNPNSLLEQSVALLNLWVIREGQNANMENLYTALQSIDRGEIVNMLE [E34L],-0.241 ± 0.097
22,MKMAVISEHLGLSWAELARELQFSVEDINRIRGENPNSLLEQSVALLNLWVIREGQNANMENLYTALQSIDRGEIVNMLE [V33G],-0.041 ± 0.04
23,MKMAVISRHLGLSWAELARELQFSVEDINRIRVENPNSLLEQSVALLNLWVIREGQNANMENLYTALQSIDRGEIVNMLE [E8R],-0.054 ± 0.052

row,Variant,abundance fitness
1,MKMAVISMHLGLSWAELARELQFSVEDINRIRVENPNSLLEQSVALLNLWVIREGQNANMENLYTALQSIDRGEIVNMLE [E8M],-0.426 ± 0.13
2,MKMAVISYHLGLSWAELARELQFSVEDINRIRVENPNSLLEQSVALLNLWVIREGQNANMENLYTALQSIDRGEIVNMLE [E8Y],-0.722 ± 0.14
3,MKMAVISIHLGLSWAELARELQFSVEDINRIRVENPNSLLEQSVALLNLWVIREGQNANMENLYTALQSIDRGEIVNMLE [E8I],-0.559 ± 0.28
4,MKMAVISEHLGLSWAELARELQFSVEDINRIRVENPNSLLEQSVALLNLWWIREGQNANMENLYTALQSIDRGEIVNMLE [V51W],0.085 ± 0.087
5,MKMAVISEHLGLSWAELARELQFSVEDINRIRVENPNSLLEQSVALLNLWMIREGQNANMENLYTALQSIDRGEIVNMLE [V51M],0.026 ± 0.11
6,MKMAVISEHLGLSWAELARELQFSVEDINRIRVENPNSLLEQSVALLNLWVIREGQNANMENLYTALQSIDEGEIVNMLE [R72E],-0.647 ± 0.11
7,MKMAVISEHLGLSWAELARELQFSVEDINRIRVENPNSLLEQSVALLNLWVIREGQNANMENLYTALQSIWRGEIVNMLE [D71W],-0.827 ± 0.14
8,MKMAVISEHLGLSWAELAIELQFSVEDINRIRVENPNSLLEQSVALLNLWVIREGQNANMENLYTALQSIDRGEIVNMLE [R19I],-0.489 ± 0.17
9,MKMAVISEHLGLSWAELAGELQFSVEDINRIRVENPNSLLEQSVALLNLWVIREGQNANMENLYTALQSIDRGEIVNMLE [R19G],-0.229 ± 0.042
10,MKMAVISEHLGLSWAELARELQFSTEDINRIRVENPNSLLEQSVALLNLWVIREGQNANMENLYTALQSIDRGEIVNMLE [V25T],-0.159 ± 0.079
11,MKMAVISEHLGLSWAELARELQFSMEDINRIRVENPNSLLEQSVALLNLWVIREGQNANMENLYTALQSIDRGEIVNMLE [V25M],-0.056 ± 0.12
12,MKMAVISEHLGLSWAELARELQFSHEDINRIRVENPNSLLEQSVALLNLWVIREGQNANMENLYTALQSIDRGEIVNMLE [V25H],0.159 ± 0.085
13,MKMAVISEHLGLSWAELARELQFSVEDINRIRVENPNSLLEQSVALLNRWVIREGQNANMENLYTALQSIDRGEIVNMLE [L49R],-0.088 ± 0.049
14,MKMAVISEHLGLSWAELARELQFSVEDINRIRVENPNSLLEQSVALLNKWVIREGQNANMENLYTALQSIDRGEIVNMLE [L49K],0.047 ± 0.1
15,MKMAVISEHLGLSWAELARELQFSVEDINRRRVENPNSLLEQSVALLNLWVIREGQNANMENLYTALQSIDRGEIVNMLE [I31R],-0.647 ± 0.083
16,MKMAVISEHLGLSWAELARELQFSVEDINRDRVENPNSLLEQSVALLNLWVIREGQNANMENLYTALQSIDRGEIVNMLE [I31D],-0.918 ± 0.32
17,MKMAVISEHLGLSWAELARELQFSVEDINRFRVENPNSLLEQSVALLNLWVIREGQNANMENLYTALQSIDRGEIVNMLE [I31F],-0.793 ± 0.44
18,MNMAVISEHLGLSWAELARELQFSVEDINRIRVENPNSLLEQSVALLNLWVIREGQNANMENLYTALQSIDRGEIVNMLE [K2N],-0.081 ± 0.095
19,MTMAVISEHLGLSWAELARELQFSVEDINRIRVENPNSLLEQSVALLNLWVIREGQNANMENLYTALQSIDRGEIVNMLE [K2T],-0.254 ± 0.084
20,MKMAVISEHLGLSWAELARELQFSVEDINRIRVENPNSLLEQSVALLNLWVIREGQNANMENLYTFLQSIDRGEIVNMLE [A66F],-1.05 ± 0.48
21,MKMAVISEHLGLSWHELARELQFSVEDINRIRVENPNSLLEQSVALLNLWVIREGQNANMENLYTALQSIDRGEIVNMLE [A15H],-0.206 ± 0.21
22,MKMAVISEHLGLSWAELARELQFSVEDINRIRVENPNSLLEQSVALLNLWVIREGQNANPENLYTALQSIDRGEIVNMLE [M60P],-0.207 ± 0.18
23,MKMAVISEHLGLSWAELARELQFSVEDINRIRVENPNSLLEQSVALLNLWVIREGQNANMENLYTALQSIDRGETVNMLE [I75T],-0.342 ± 0.13

row,Variant,abundance fitness
1,MKMAVISEHLGLSWAELARELQFSVEDINRIRVENPNSLLVQSVALLNLWVIREGQNANMENLYTALQSIDRGEIVNMLE [E41V],-0.467 ± 0.067
2,MKMAVISEHLGLSWAELARELQFSVEDINRIRVENPNSLLSQSVALLNLWVIREGQNANMENLYTALQSIDRGEIVNMLE [E41S],-0.005 ± 0.048
3,MKMAVISEHLGLSWAELARELQFSVEDINRIRVENPNSLLCQSVALLNLWVIREGQNANMENLYTALQSIDRGEIVNMLE [E41C],-0.173 ± 0.075
4,MKMAVIAEHLGLSWAELARELQFSVEDINRIRVENPNSLLEQSVALLNLWVIREGQNANMENLYTALQSIDRGEIVNMLE [S7A],0.109 ± 0.055
5,MKMAVIKEHLGLSWAELARELQFSVEDINRIRVENPNSLLEQSVALLNLWVIREGQNANMENLYTALQSIDRGEIVNMLE [S7K],-0.786 ± 0.21
6,MKMAVISEHLGLSWAELARELQFSVEDINRIRVESPNSLLEQSVALLNLWVIREGQNANMENLYTALQSIDRGEIVNMLE [N35S],-0.017 ± 0.12
7,MKMAVISEHLGLSWAELARELQFSVEDINRIRVEVPNSLLEQSVALLNLWVIREGQNANMENLYTALQSIDRGEIVNMLE [N35V],-0.171 ± 0.12
8,MKMAVISEHLGLSWAELARELQFSVEDINRIRVENPNSLLEQSVALLNLWVIREGQNANMENLYTALNSIDRGEIVNMLE [Q68N],0.003 ± 0.13
9,MKMAVISEHLGLSWAELARELQFSVEDINRIRVENPNSLLEQSVALLNLWVIREGQNANMENLYTALGSIDRGEIVNMLE [Q68G],-0.152 ± 0.039
10,MKMAVISEHLGLSWAELARELQFSVEDINRIRVENLNSLLEQSVALLNLWVIREGQNANMENLYTALQSIDRGEIVNMLE [P36L],-0.774 ± 0.12
11,MKMAVISEHLGLSWAELARELQFSVEDINRIRVENQNSLLEQSVALLNLWVIREGQNANMENLYTALQSIDRGEIVNMLE [P36Q],0.123 ± 0.11
12,MKMAVISEHLGLSWAELARGLQFSVEDINRIRVENPNSLLEQSVALLNLWVIREGQNANMENLYTALQSIDRGEIVNMLE [E20G],-0.49 ± 0.068
13,MKMAVISEHLGLSWAELARALQFSVEDINRIRVENPNSLLEQSVALLNLWVIREGQNANMENLYTALQSIDRGEIVNMLE [E20A],-0.136 ± 0.059
14,MKMAVISEHLGLSWAELARELQFSVEDINRIPVENPNSLLEQSVALLNLWVIREGQNANMENLYTALQSIDRGEIVNMLE [R32P],-0.831 ± 0.23
15,MKMAVISEHLGLSWAELARELQFSVEDINRIWVENPNSLLEQSVALLNLWVIREGQNANMENLYTALQSIDRGEIVNMLE [R32W],-0.31 ± 0.45
16,MKMAVISEHLGLSWAELARELQFSVEDINRIRVENPNSLLEQSVALLNLWVIREGQNANMENLYTAGQSIDRGEIVNMLE [L67G],-0.852 ± 0.097
17,MKMAVISEHLGLSWAELARELQFSVEDINRIRVENPNSLLEQSVALLNLWVIREGQNANMENLYTAVQSIDRGEIVNMLE [L67V],-0.771 ± 0.11
18,MKMAVISEHLGRSWAELARELQFSVEDINRIRVENPNSLLEQSVALLNLWVIREGQNANMENLYTALQSIDRGEIVNMLE [L12R],-0.038 ± 0.09
19,MKMAVISEHLGLSWAELARELQFSVEDINRIRVENPNSLLEQSVALLNLWVIREGQNAPMENLYTALQSIDRGEIVNMLE [N59P],-0.253 ± 0.12
20,MKMAVISEHLGLSWAELARELQFSVEDINRIRVENPNSLLEQSVALLNLWVIREGQNANMENLYTALQSIDRGEIVNMLH [E80H],-0.06 ± 0.11
21,MKMAVISEHLGLSWAELARELQFSVEDINRIRVENPNSLLEQSVAILNLWVIREGQNANMENLYTALQSIDRGEIVNMLE [L46I],-0.446 ± 0.12
22,MKMAVISEHLGLSWAELARELQFSVEDINRIRVENPNSLLEQSVAMLNLWVIREGQNANMENLYTALQSIDRGEIVNMLE [L46M],-0.201 ± 0.039
23,MKMAVISEHLGLSWAELARELQFSVEDINRIRVENPNSLLEQSVACLNLWVIREGQNANMENLYTALQSIDRGEIVNMLE [L46C],-0.138 ± 0.2
